Drawing on article doi:10.1101/671792, this text covers Kd for 1 substance.

The experiment addresses polymerization-deficient p62 PB1 domain D69A/D73A (human) (UniProt Q13501). The experiment in a line: ITC.

By Kd is commonly meant the equilibrium constant for the complex coming apart. Low readings indicate a tighter complex, high ones a looser complex. For the substance “human NBR1 PB1 domain, residues 1-85 (ITC) (from UniProt Q14596 1-85) (domain or fragment)”, the dissociation constant (Kd) was 12.6 nM.
